We go through seven molecules from paper PMC4667285, “Octameric structure of Staphylococcus aureus enolase in complex with phosphoenolpyruvate” (Acta Crystallographica Section D: Biological Crystallography, 2015).

The target in one data set is T1, Sa_enolase (octamer) (Staphylococcus aureus, UniProt O69174).
T1 construct: gene eno; C-terminal hexahistidine tag, pET-24a, E. coli BL21(DE3); residues 1-434 described; octamer fraction separated from dimer by size-exclusion chromatography
As to the kind of experiment: isothermal titration calorimetry. Type of data set: binding. (Isothermal titration calorimetry measures the heat released or taken up as one component is titrated into another.)

The test system of data set [1] is O=C(O)[C@@H](CO)OP(=O)(O)O. As to the kind of experiment: purified protein. The note with it: octamer, room temperature, 20 mM IMD–HCl, 400 mM KCl, 1 mM magnesium acetate pH 7.0.
The target in data set [2] is Sa_enolase D355A mutant (Staphylococcus aureus) (UniProt Q2G028). As to the kind of experiment: SEC. A general note: In gel filtration, larger molecules generally elute earlier.
In data set [3] the target is Sa_enolase F139A mutant (Staphylococcus aureus) (UniProt Q2G028). The data set can be described thus: SEC.
Data set [4] has as its target Sa_enolase G138A mutant (Staphylococcus aureus) (UniProt Q2G028). The data set can be described thus: SEC.
For data set [5], the target named is Sa_enolase Y135A mutant (Staphylococcus aureus) (UniProt Q2G028). The data set can be described thus: SEC.
For data set [6], the target named is Staphylococcus aureus enolase, wild type (Staphylococcus aureus) (UniProt Q2G028). The data set can be described thus: crystal structure; PEP-bound Sa_enolase, 1.6 Å, space group I4, co-crystallised with 2-PG (1:10); 0.2 M ammonium acetate, 0.1 M Tris-HCl pH 8.5, 25% PEG 3350, 16°C.
Data set [7] has the same target. As to the kind of experiment: crystal structure; non-ligand-bound Sa_enolase, 2.45 Å, space group P42(1)2, a homodimer in the asymmetric unit, octamer by fourfold crystallographic symmetry; 0.01 M cobalt(II) chloride, 0.1 M MES pH 6.5, 1.8 M ammonium sulfate, 16°C.

Usually Kd stands for a measure of binding affinity in units of concentration. As for `O=C(O)[C@@H](CO)OP(=O)(O)O` [2-PG], the Kd at Sa_enolase (octamer) came to 15 ± 2.6 µM.

Usually Vmax stands for the top rate of the reaction or transport when substrate is in excess. The kcat is the number of substrate molecules converted per active site and unit of time at saturation. The term kcat/Km denotes the turnover number divided by the Michaelis constant. Take “Sa_enolase (octamer) (Staphylococcus aureus)”: in data set [1], the Km is on record as 0.365 ± 0.030 × 10^−3 M, the Vmax came out at 74.8 µM/min, the kcat was found to be 83 s⁻¹ and the kcat/Km is 227000 M⁻¹ s⁻¹.

One may read the stoichiometry N as the number of molecules, sites or subunits per partner or assembly. Regarding “Sa_enolase D355A mutant (from UniProt Q2G028) (enzyme)”, in data set [2], the stoichiometry N worked out at 2.

“Sa_enolase F139A mutant (from UniProt Q2G028) (enzyme)” had a stoichiometry N in data set [3] of 2.

On to “Sa_enolase G138A mutant (from UniProt Q2G028) (enzyme)”, for which the stoichiometry N in data set [4] worked out at 2.

“Sa_enolase Y135A mutant (from UniProt Q2G028) (enzyme)” came in with a stoichiometry N in data set [5] of 2.

Turning to “Staphylococcus aureus enolase, wild type (from UniProt Q2G028) (enzyme)”, the stoichiometry N in data set [6] and in data set [7] was 8 throughout.
